The values below come from patent US20220251215A1.

The target in assay [1] is HLA.A2 with NY-ESO-1: 157-165 on IM9 cells. Nature of the assay: cell-based or functional assay.
For assay [2], the target named is HLA.A2/hB2M/NY-ESO-1: 157-165 WT on 3T3 cells (human) (UniProt P04439). The assay can be described thus: cell-based or functional assay.

B1: NY-ESO CAR-T 24958N VH-VL (protein, part only; not given: scFv linker, hinge, signalling domains, not shown: large carriers)
chain, part: QVQLQESGPGLVKPSQTLSLTCTVSGGSIISDGYYWSWIRQHPGKGLEWIGYVDYSGNTYYNPSLKSRIIMSVDTSKNQFSLKLTSVTAADTAVYFCVREGPLRDAFEIWGQGTMVTVSSDIQMTQSPSSLSASVGDRVTITCRTSQSISRYLNWYQQKPGKAPKLLIFAASSLQSGVPSRFSGSGSGADFTLTISSLQPEDFATYYCQQSYSTPPITFGQGTRLEIK
In turn, B1 registered a Max Fold (RLU), NFAT-luciferase in assay [1] of 1 fold. In assay [2], the EC50 (#of APC cells), NFAT-luciferase was determined as 24500 APC cells and the Max Fold (RLU), NFAT-luciferase came out at 6.7 fold.

B2: NY-ESO CAR-T 24958N VL-VH (protein, part only; not given: scFv linker, hinge, signalling domains, not shown: large carriers)
chain, part: DIQMTQSPSSLSASVGDRVTITCRTSQSISRYLNWYQQKPGKAPKLLIFAASSLQSGVPSRFSGSGSGADFTLTISSLQPEDFATYYCQQSYSTPPITFGQGTRLEIKQVQLQESGPGLVKPSQTLSLTCTVSGGSIISDGYYWSWIRQHPGKGLEWIGYVDYSGNTYYNPSLKSRIIMSVDTSKNQFSLKLTSVTAADTAVYFCVREGPLRDAFEIWGQGTMVTVSS
Consider B2, for which the Max Fold (RLU), NFAT-luciferase in assay [1] was 0.9 fold. In assay [2], this molecule yielded an EC50 (#of APC cells), NFAT-luciferase of 19900 APC cells and a Max Fold (RLU), NFAT-luciferase of 6.4 fold.

B3: NY-ESO CAR-T 24959N VH-VL (protein, part only; not given: scFv linker, hinge, signalling domains, not shown: large carriers)
chain, part: QLQLLESGPGLVKPSETLSLICTVSGGSIRGSSYYWGWIRQPPEKGLEWIGSIYSSGSTYYNPSLKSRVTISADTSKNQFSLKLSSVTAADTAVYYCARHGGITAVQLEFDPWGQGTLVTVSSDIQMTQSPSSLSASVGDRVTITCQASQDISNYLKWYQQKPGKAPKILIHDASNLEIGVPSRFSGSGAGTDFIFTISSLQPEDIGTYYCQQYDNLPITFGQGTRLEIK
Take B3: the figures for the Max Fold (RLU), NFAT-luciferase in assay [1] and in assay [2] were 1.1 fold and 13.3 fold, respectively. The EC50 (#of APC cells), NFAT-luciferase in assay [2] worked out at 14200 APC cells.

B4: NY-ESO CAR-T 24959N VL-VH (protein, part only; not given: scFv linker, hinge, signalling domains, not shown: large carriers)
chain, part: DIQMTQSPSSLSASVGDRVTITCQASQDISNYLKWYQQKPGKAPKILIHDASNLEIGVPSRFSGSGAGTDFIFTISSLQPEDIGTYYCQQYDNLPITFGQGTRLEIKQLQLLESGPGLVKPSETLSLICTVSGGSIRGSSYYWGWIRQPPEKGLEWIGSIYSSGSTYYNPSLKSRVTISADTSKNQFSLKLSSVTAADTAVYYCARHGGITAVQLEFDPWGQGTLVTVSS
For B4, the Max Fold (RLU), NFAT-luciferase in assay [1] turned out to be 0.8 fold. In assay [2], this molecule yielded an EC50 (#of APC cells), NFAT-luciferase of 24000 APC cells and a Max Fold (RLU), NFAT-luciferase of 28.6 fold.
